{
  "source": "paper PMC10709618",
  "about": "“Ag nanorod@PEI-Ag nanohybrid as an excellent signal label for sensitive and rapid detection of serum HER2”",
  "binders": {"B1": {"name": "HER2 aptamer (ssDNA)", "DNA": "GGGCCGTCGAACACGAGCATGGTGCGTGGACCTAGGATGACCTGAGTACTGTCC", "modifications": "5'-thiol (SH)"}},
  "target": "HER2 (GST-tagged, human) (human, UniProt P04626 676-1255)",
  "test": "electrochemical aptasensor (cyclic voltammetry); Ag NR@PEI-Ag nanohybrid label cast after HER2; LOD 10 pg (not a Kd); Aptamer 0.25 uM loaded on Au electrode; HER2 cast and dried under infrared lamp, PBS wash; CV in 0.1 M PBS pH 7, 100 mV/s; temperature not stated",
  "conditions": "protein: commercial; tags: GST",
  "data": [
    {"binder": "B1", "values": [
      {"measurement": "binding result", "result": "binds"}
    ]}
  ]
}
